In this series the test system is Escherichia coli TOP10. Briefly: shrunken log2 fold change of peptide-encoding DNA abundance (4.5 h post-induction vs induction); higher = less antimicrobial activity (less host growth inhibition). Conditions: time post-induction: 4.5 h; library: site-saturation at positions 5, 18, 19, 20.
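Further: peptides expressed intracellularly from a pBAD plasmid library in pooled LB shake-flask culture, induced with 0.3% L-arabinose, DNA abundance read by NGS, three biological replicates, DESeq2 with apeglm shrinkage.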

Take RRIRQRPPRLPRPRPRPRDDPRP: the “shrunken log2 fold change” value came out at 0.538.
The value for RRIRVRPPRLPRPRPRPVPWPRP was 0.0916; that for RRIRQRPPRLPRPRPRPWGWPRP was 0.546.
The value for RRIRIRPPRLPRPRPRPTQWPRP was -0.136; that for RRIRWRPPRLPRPRPRPFRFPRP was -0.0501; that for RRIRERPPRLPRPRPRPLRTPRP was 0.00359.
As to RRIRTRPPRLPRPRPRPGWGPRP, the “shrunken log2 fold change” value is 0.343.
The value for RRIRFRPPRLPRPRPRPELRPRP was -0.0629; that for RRIRTRPPRLPRPRPRPVLLPRP was -0.127; that for RRIRKRPPRLPRPRPRPWCSPRP was -0.155.
The value for RRIRGRPPRLPRPRPRPYGHPRP was 0.323.
The value for RRIRSRPPRLPRPRPRPKFNPRP was -0.573; that for RRIRMRPPRLPRPRPRPVFMPRP was -0.202; that for RRIRSRPPRLPRPRPRPLHGPRP was 0.0705.
For RRIRYRPPRLPRPRPRPPRRPRP, the “shrunken log2 fold change” value stood at 0.261.
For the sequence RRIRWRPPRLPRPRPRPASCPRP, the “shrunken log2 fold change” value came out at 0.241.
The value for RRIRGRPPRLPRPRPRPDDTPRP was 0.944; that for RRIRGRPPRLPRPRPRPSDGPRP was -0.0367; that for RRIRYRPPRLPRPRPRPDQIPRP was 0.0304.
As to RRIRNRPPRLPRPRPRPMTAPRP, the “shrunken log2 fold change” value was -0.167.
The value for RRIRHRPPRLPRPRPRPGDSPRP was -0.53; that for RRIRTRPPRLPRPRPRPLSCPRP was -0.000228; that for RRIRGRPPRLPRPRPRPAWHPRP was 0.521.
As for RRIRWRPPRLPRPRPRPNRPPRP, the “shrunken log2 fold change” value was 0.078.
For the sequence RRIRRRPPRLPRPRPRPVFRPRP, the “shrunken log2 fold change” value turned out to be 0.226.
On to RRIRARPPRLPRPRPRPHPTPRP, for which the “shrunken log2 fold change” value turned out to be 0.648.
The value for RRIRNRPPRLPRPRPRPVWVPRP was 0.0909.
The value for RRIRERPPRLPRPRPRPITLPRP was 0.0653; that for RRIRTRPPRLPRPRPRPQWCPRP was -0.0353; that for RRIRKRPPRLPRPRPRPDWNPRP was 0.158.
The value for RRIRHRPPRLPRPRPRPCDCPRP was -0.138; that for RRIRVRPPRLPRPRPRPSSNPRP was -0.375.
Turning to RRIRQRPPRLPRPRPRPLQFPRP, the “shrunken log2 fold change” value was -0.168.
Regarding RRIRYRPPRLPRPRPRPEMHPRP, the “shrunken log2 fold change” value was 2.42.
Consider RRIRIRPPRLPRPRPRPNKHPRP, for which the “shrunken log2 fold change” value was -0.727.
The value for RRIRYRPPRLPRPRPRPNMEPRP was -0.618; that for RRIRKRPPRLPRPRPRPMDAPRP was 0.415.
The value for RRIRERPPRLPRPRPRPANHPRP was -0.00846.
RRIRLRPPRLPRPRPRPTAIPRP: the “shrunken log2 fold change” value was -0.17.
The value for RRIRPRPPRLPRPRPRPMNIPRP was -0.793; that for RRIRERPPRLPRPRPRPSMPPRP was -0.484; that for RRIRCRPPRLPRPRPRPIHHPRP was -0.481.
The value for RRIRDRPPRLPRPRPRPERIPRP was -0.0322; that for RRIRYRPPRLPRPRPRPPSLPRP was 0.289; that for RRIRARPPRLPRPRPRPTVAPRP was 0.779.
On to RRIRDRPPRLPRPRPRPIKLPRP, for which the “shrunken log2 fold change” value is -0.213.
In the case of RRIRNRPPRLPRPRPRPANYPRP, the “shrunken log2 fold change” value was -0.0161.
Regarding RRIRFRPPRLPRPRPRPLEYPRP, the “shrunken log2 fold change” value is -0.474.
The value for RRIRERPPRLPRPRPRPLMMPRP was -0.263.
The value for RRIRVRPPRLPRPRPRPLHWPRP was 0.243; that for RRIRRRPPRLPRPRPRPCQQPRP was -0.0197.
The value for RRIRHRPPRLPRPRPRPKRLPRP was 0.0708; that for RRIRTRPPRLPRPRPRPCIPPRP was -1.3; that for RRIRARPPRLPRPRPRPHYRPRP was 0.0684.
With RRIRYRPPRLPRPRPRPMIWPRP, the “shrunken log2 fold change” value is -0.00195.
The value for RRIRSRPPRLPRPRPRPDQFPRP was -0.167.
The value for RRIRVRPPRLPRPRPRPAWVPRP was 0.459; that for RRIRLRPPRLPRPRPRPWCTPRP was 0.0254; that for RRIRFRPPRLPRPRPRPAAAPRP was 0.551.
As to RRIRTRPPRLPRPRPRPESKPRP, the “shrunken log2 fold change” value was 0.214.
The value for RRIRKRPPRLPRPRPRPRPDPRP was 0.446; that for RRIRKRPPRLPRPRPRPGADPRP was 0.709.
With RRIRRRPPRLPRPRPRPLSPPRP, the “shrunken log2 fold change” value amounted to 0.411.
The value for RRIRCRPPRLPRPRPRPHHIPRP was -0.88; that for RRIRTRPPRLPRPRPRPPIFPRP was -0.245; that for RRIRARPPRLPRPRPRPTYMPRP was -0.36.
The value for RRIRFRPPRLPRPRPRPSAMPRP was -0.0766.
The value for RRIRKRPPRLPRPRPRPYASPRP was 0.0496; that for RRIRVRPPRLPRPRPRPSNFPRP was -0.476; that for RRIRDRPPRLPRPRPRPKKAPRP was 0.0426.
For the sequence RRIRNRPPRLPRPRPRPDEEPRP, the “shrunken log2 fold change” value was found to be 0.509.
The value for RRIRIRPPRLPRPRPRPQFPPRP was -0.0492; that for RRIRNRPPRLPRPRPRPGEWPRP was 0.00667.
On to RRIRLRPPRLPRPRPRPYDFPRP, for which the “shrunken log2 fold change” value is -0.0867.
As to RRIRGRPPRLPRPRPRPPIHPRP, the “shrunken log2 fold change” value was determined as 0.108.
The value for RRIRARPPRLPRPRPRPPQKPRP was 1.29.
The value for RRIRQRPPRLPRPRPRPQWNPRP was -0.206.
For RRIRYRPPRLPRPRPRPEGMPRP, the “shrunken log2 fold change” value turned out to be 0.0329.
Take RRIRERPPRLPRPRPRPAQQPRP: the “shrunken log2 fold change” value was -0.0516.
With RRIRLRPPRLPRPRPRPRTWPRP, the “shrunken log2 fold change” value turned out to be 0.111.
The value for RRIRCRPPRLPRPRPRPTHGPRP was 0.000601; that for RRIRIRPPRLPRPRPRPQHRPRP was -0.116.
The value for RRIRSRPPRLPRPRPRPILHPRP was -0.159; that for RRIRYRPPRLPRPRPRPDEPPRP was -0.0449.
Take RRIRVRPPRLPRPRPRPKIEPRP: the “shrunken log2 fold change” value is 0.132.
Regarding RRIRRRPPRLPRPRPRPQHRPRP, the “shrunken log2 fold change” value was 0.266.
The value for RRIRARPPRLPRPRPRPPNSPRP was 0.136.
The value for RRIRCRPPRLPRPRPRPPHVPRP was 0.385; that for RRIRYRPPRLPRPRPRPHCIPRP was -0.0129.
Take RRIRMRPPRLPRPRPRPFRKPRP: the “shrunken log2 fold change” value is -0.0166.
For RRIRRRPPRLPRPRPRPQRLPRP, the “shrunken log2 fold change” value is 0.124.
The value for RRIRPRPPRLPRPRPRPWKCPRP was 0.0176.
The value for RRIRERPPRLPRPRPRPHDYPRP was 0.0456.
RRIRARPPRLPRPRPRPMNDPRP: the “shrunken log2 fold change” value was 0.138.
RRIRGRPPRLPRPRPRPRQPPRP: the “shrunken log2 fold change” value came out at 0.283.
Consider RRIRLRPPRLPRPRPRPEHIPRP, for which the “shrunken log2 fold change” value came out at 0.0843.
As to RRIRPRPPRLPRPRPRPDCGPRP, the “shrunken log2 fold change” value was determined as 0.093.
In the case of RRIRTRPPRLPRPRPRPKMLPRP, the “shrunken log2 fold change” value was -0.204.
The value for RRIRDRPPRLPRPRPRPALFPRP was 0.99; that for RRIRGRPPRLPRPRPRPTQMPRP was 0.924; that for RRIRSRPPRLPRPRPRPWDIPRP was -0.211.
RRIRPRPPRLPRPRPRPCCLPRP: the “shrunken log2 fold change” value was -0.439.
As to RRIRHRPPRLPRPRPRPFAAPRP, the “shrunken log2 fold change” value is -0.0135.
Consider RRIRSRPPRLPRPRPRPAHLPRP, for which the “shrunken log2 fold change” value stood at 0.27.
For RRIRWRPPRLPRPRPRPTFWPRP, the “shrunken log2 fold change” value was 0.617.
The value for RRIRERPPRLPRPRPRPDYHPRP was -0.486; that for RRIRNRPPRLPRPRPRPARWPRP was 0.531.
The value for RRIRTRPPRLPRPRPRPEAVPRP was -0.0221.
The value for RRIRMRPPRLPRPRPRPWDNPRP was 0.013; that for RRIRHRPPRLPRPRPRPQQHPRP was -0.384; that for RRIRVRPPRLPRPRPRPFPNPRP was 0.038.
In the case of RRIRERPPRLPRPRPRPILQPRP, the “shrunken log2 fold change” value was -0.518.
Turning to RRIRCRPPRLPRPRPRPGNRPRP, the “shrunken log2 fold change” value was 0.0246.
As to RRIRARPPRLPRPRPRPVLIPRP, the “shrunken log2 fold change” value is -0.179.
As to RRIRERPPRLPRPRPRPTELPRP, the “shrunken log2 fold change” value was -0.577.
On to RRIRVRPPRLPRPRPRPYYLPRP, for which the “shrunken log2 fold change” value is -0.286.
As for RRIRCRPPRLPRPRPRPGCSPRP, the “shrunken log2 fold change” value is -0.182.
The value for RRIRGRPPRLPRPRPRPDLNPRP was 0.843.
For RRIRWRPPRLPRPRPRPQCKPRP, the “shrunken log2 fold change” value came to 0.132.
As for RRIRWRPPRLPRPRPRPDVRPRP, the “shrunken log2 fold change” value was -0.0136.
Consider RRIRWRPPRLPRPRPRPERWPRP, for which the “shrunken log2 fold change” value was determined as 1.14.
With RRIRSRPPRLPRPRPRPQSCPRP, the “shrunken log2 fold change” value was -0.00487.
Consider RRIRNRPPRLPRPRPRPEPTPRP, for which the “shrunken log2 fold change” value amounted to 0.587.
Regarding RRIRLRPPRLPRPRPRPIHKPRP, the “shrunken log2 fold change” value was determined as 0.195.
With RRIRRRPPRLPRPRPRPDALPRP, the “shrunken log2 fold change” value amounted to 0.23.
